Laboratory results reported in US20130289246A1 (VANDERBILT UNIVERSITY, published 2013).

Key:
[1] = target: T1, first-generation H3 LAH construct H3frThrST (Influenza A virus (H3)); assay: ELISA, supernate
[2] = target: T2, first-generation H1 LAH construct H1frThrST (Influenza A virus (H1)); assay: ELISA, supernate
[3] = target: T1, first-generation H3 LAH construct …; assay: ELISA, supernate; remark: listed apart in the source
[4] = target: T2, first-generation H1 LAH construct …; assay: ELISA, supernate; remark: listed apart in the source
[5] = target: T1, first-generation H3 LAH construct …; assay: ELISA, recombinant mAb
[6] = target: T2, first-generation H1 LAH construct …; assay: ELISA, recombinant mAb
[7] = target: T1, first-generation H3 LAH construct …; assay: ELISA, supernate; remark: listed apart in the source
[8] = target: T2, first-generation H1 LAH construct …; assay: ELISA, supernate; remark: listed apart in the source
[9] = target: T1, first-generation H3 LAH construct …; assay: ELISA, supernate; remark: listed apart in the source
[10] = target: T2, first-generation H1 LAH construct …; assay: ELISA, supernate; remark: listed apart in the source
[11] = target: T1, first-generation H3 LAH construct …; assay: ELISA, supernate; remark: listed apart in the source
[12] = target: T2, first-generation H1 LAH construct …; assay: ELISA, supernate; remark: listed apart in the source
[13] = target: T1, first-generation H3 LAH construct …; assay: ELISA, supernate; remark: listed apart in the source
[14] = target: T2, first-generation H1 LAH construct …; assay: ELISA, supernate; remark: listed apart in the source

| Binder | OD [1] [OD] | OD [2] [OD] | OD [3] [OD] | OD [4] [OD] | further results |
| --- | --- | --- | --- | --- | --- |
| mAb 4A10 (antibody, V domains shown) VH: EVQLVESGGGLVQPGGSLRLSCAASGFSFSSYWMTWVRQAPGKGLEWVANIKQYGSEKYYVDSVKGRFTISRDNAKNSLYLQMNSLRDDDTAVYYCARMGSYLDTYYYHYGMDVWGQGTTVTVS VL: QSVLTQPPSLSGAPGQRVTISCTGSSSNIGADYDVYWYQHLPGTAPKLLMYGDGYRPSGVPDRFSGSKSGTSASLAITGLQAEDEADYYCQSYDSSLSRRVVFGGGTKLTVLG | 0.073 | 0.069 | – | – | – |
| mAb 11J19 (antibody, V domains shown) VH: EVQLQESGPGLVKPSETLSLSCTVSGGSITRSSYYWGWIRQPPGKGLEWIGNIYYSGTTYYNPSLKSRVTISVDTSKNQFSLKLSSVTAADTAVYYCARLYGSGLDYWGQGTLVTVS VL: DIQLTQSPSFLSASVGDRVTITCRASQGSSRYVAWYQQKPGKAPKLLILAASTLHTGVPSRFSGSGSGTEFTLTISSLQPEDFATYSCQQLNGFLLTFGGGTKVEIKR | – | – | 0.075 | 0.085 | – |
| mAb 25J3 (antibody, V domains shown) VH: QVQLQESGPGLVRPSETLSLTCNVSGDSINDYYWSWIRQPPGKGLEWIGYIYYSGSTNYNPSLNSRVTISVEMSKNQFSLILNSVTAADTAVYYCARVDYDSGGSFDPWGQGTLVTVS VL: QSVLTQPPSVSGAPGQRVTISCTGSSSNIGAGYDVHWYQQLPGTAPKLLIYGNSNRPSGVPDRFSGSKSGTSASLAITGLQAEDEADFYCQSYDSRLSGYVFGTGTKVTVLG | – | – | 0.067 | 0.068 | – |
| mAb 2O10 (antibody, V domains shown) VH: EVQLVESGGGLVQPGGSLRLSCAASGFTFNSYWMTWVRQAPGKGLEWVANINQDGSEKFFVDSVKGRFTISRDNAKTSLYLQMNSLRVEDTAVYYCAREGAPYDTYYYYYAMDVWGQGTTVTVS VL: QSVLTQPPSVSGAPGQRVTISCTGTSSNIGAGYGVHWYQQLPGAAPKLLVYGNSNRPSGVPDRFSGSKSGTSASLAITGLQAEDEADYYCQSYDISLSGSNVFGTGTKVTVLG | 0.074 | 0.072 | – | – | – |
| mAb 3N6 (recombinant) (antibody, V domains shown) VH: QVQLQESGPGLVKPSETLSLTCSVSGGSINYYYWSWIRQPPGKGLECIGYISDTGRTYYNPSLRSRVTISVDTSKNQFSLNLTSMTAADTAVYYCARDPTGSRQKNAFDMWGQGTMVTVS VL: AIQMTQSPSSLSASVGDRVTITCRASQNIRSYLNWYQQKPGKAPNLLIYGTTSLESGVPSRFSGSGSGTDFTLTISSLQPEDFATYYCQQSYHTPQTFGQGTKVEIKR | – | – | – | – | OD [5]: 0.072 OD; OD [6]: 0.91 OD |
| mAb 7A13 (antibody, V domains shown) VH: QVQLQESAPGLVKPSGTLSLTCAVSGASLSSSDWWTWVRQPPGKGLEWIGEIHHGGSTNSNPSLQSRVTISIDKSKKQFSLKLTSVTVADTAVYYCARAPGADAGPYSENIHHWGQGTLVTVS VL: QLVLTQSPSASASLGASVKLTCTLSSRHSDYAIGWHQQQPGKGPRYLMKLNPDGSHTKGDGIPDRFSGSSSGAERYLTISNLLSEDEADYYCQTWGTGIQVFGGGTRLTVIS | – | – | 0.068 | 0.068 | – |
| mAb 8F8 (antibody, V domains shown) VH: EVQLLESGGGVVQPGRSLRLSCAASGFMFSSYVMHWVRQPPGKGLEWVAVIWYDGSKTYFADSMRGRLTVSRDNSKNALYLQMNRLRAEDTAVYYCARQQDSGYSGPEVSYYSHYGMDVWGQGTTVIVS VL: QSVLTQSPSASGTPGRAITISCSGSSSNIGSNPVNWYQQLPGAAPKLLIYADEHRPSGVPDRFSGPKSGTSASLAISGLQSEDEADYYCAAWDDSLSGPAVVFGGGTKLTVLG | – | – | 0.071 | 0.071 | – |
| mAb 3E22 (antibody, V domains shown) VH: EVQLVESGAEVKKPGASVKVSCKASGYTFSRYYIHWVRQAPGQELEWMGWINPDSGDTNYAQKFRGRVTMARDTSISTVYMELNSLRYDDTAVYFCARIIWSSSGMDVWGQGTTVTVS VL: QSALTQPASVSGSPGQSITISCTGTSSDVGSYNLVSWYQQHPGKAPKLMIYEVSKRPSGVSNRFSGSKSGNTASLTISGLQAEDEADYYCHLYVGSSNWVFGGGTKLAVLG | – | – | – | – | binding result [7]: no binding; binding result [8]: no binding; OD [9]: 0.086 OD; OD [10]: 0.087 OD |
| mAb 18G6 (antibody, V domains shown) VH: QVQLKESGPGLVKPSETLSLTCTVSGGSISSSNYNWGWIRQPPGKGLEWIGSVYYSGSTYFNPSLKSRVTISVDTSKNQFSLKLTSVTAADTAVYYCARLIAFYYDTNGYTWGQGTLVTVS VL: NSIMTQSPFTLSASVGDKVTITCRASQSISPWLAWYQQKPGKAPKLLIYKASSLETGVPSRFSGSESGTEFTLTISGLQPDDFATYYCQQYSSFARTFGQGTKVEIKR | – | – | 0.071 | 0.071 | – |
| mAb 2K11 (antibody, V domains shown) VH: EVQLVESGGGLVQPGGSLRLSCVASTFSLINYWMTWVRQAPGKGLEWVANIKQDGFEKYYVDSVKGRFTISRDNAKNSLYLQMNSLRVEDTAVYYCARQGSYADTYFYHYGMDVWGQGTTVTVS VL: QSALTQPPSVSGAPGQRVTISCTGSSSNIGAGYDAYWYQQLPGTAPKLLIYGNSNRLSGVPDRFSASKSGTSASLAITGLQAEDEADYYCQSYDSSLSIFGGGTKLTVLR | 0.072 | 0.079 | – | – | – |
| mAb 5J8 (antibody, V domains shown) VH: EVQLVESGPGLVKPSDILSLTCAVSGYSISSNYYWGWIRQPPGKGLEWIGSIYHSGSTYYKPSLESRLGISVDTSKNQFSLKLSFVSAADTAVYYCARHVRSGYPDTAYYFDKWGQGTLVTVS VL: SYVLTQPPSVSVAPGETARISCGGNNIGTKVLHWYQQTPGQAPVLVVYDDSDRPSGIPERFSGSNSGNTATLTISRVEVGDEADYYCQVWDISTDQAVFGGGTKLTVLG | 0.083 | 0.076 | – | – | – |
| mAb 6J24 (antibody, V domains shown) VH: EVQLVESGGGLVQPGRSLRLSCVGSGFNFDGYAMQWVRQVPGKGLEWVSGISWHSDSTGYADSVRGRFTISRDNAKNSLYLQMDSLRPEDTAFYYCGKSIGHVGGSYRHPIDYWGQGTLVTVS VL: DIQLTQSPSSLSASVGDRVTITCRASQGITDYLAWYQQKPGTIPKLLIYAASTLQSGVPSRFSGGGYGTDFTLTISSLQPEDVATYYCQKYNSAPLTFGGGTKVEIKR | – | – | – | – | OD [11]: 0.94 OD; OD [12]: 0.418 OD |
| mAb 10E15 (antibody, V domains shown) VH: EVQLLESGGGVVQPGRSLRLSCAASGFTFRTYGMHWVRQAPGKGLEWVAVISHDGNLKYYGGSVKGRFTISRDNSKNALYLQMNSLRVDDTALYYCARGIGITDAFDIRGQGTMVVVS VL: QSVLTQPPSVSAAPGQKVTISCSGSSSNIGKNYVSWYQQLPGTAPKLLIYDNDKRPSGIPDRFSGSKSGTSATLGITGLQTGDEADYHCGAWDSSLNGGVFGGGTKVTVLG | – | – | – | – | binding result [8]: no binding; OD [13]: 0.07 OD; OD [14]: 0.068 OD |
